The record followed here is patent publication US20090099029.

The chains are these.
T1: Bovine, dephosphorylated, Myelin Basic Protein (MBP), P02687
T1 chain: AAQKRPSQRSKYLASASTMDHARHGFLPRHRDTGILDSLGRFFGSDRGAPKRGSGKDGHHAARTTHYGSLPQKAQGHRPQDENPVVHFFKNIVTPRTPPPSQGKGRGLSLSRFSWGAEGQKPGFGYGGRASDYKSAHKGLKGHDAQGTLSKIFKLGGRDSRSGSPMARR

B1: MAP3K5(ASK1) (protein)
chain: MSTEADEGITFSVPPFAPSGFCTIPEGGICRRGGAAAVGEGEEHQLPPPPPGSFWNVESAAAPGIGCPAATSSSSATRGRGSSVGGGSRRTTVAYVINEASQGQLVVAESEALQSLREACETVGATLETLHFGKLDFGETTVLDRFYNADIAVVEMSDAFRQPSLFYHLGVRESFSMANNIILYCDTNSDSLQSLKEIICQKNTMCTGNYTFVPYMITPHNKVYCCDSSFMKGLTELMQPNFELLLGPICLPLVDRFIQLLKVAQASSSQYFRESILNDIRKARNLYTGKELAAELARIRQRVDNIEVLTADIVINLLLSYRDIQDYDSIVKLVETLEKLPTFDLASHHHVKFHYAFALNRRNLPGDRAKALDIMIPMVQSEGQVASDMYCLVGRIYKDMFLDSNFTDTESRDHGASWFKKAFESEPTLQSGINYAVLLLAAGHQFESSFELRKVGVKLSSLLGKKGNLEKLQSYWEVGFFLGASVLANDHMRVIQASEKLFKLKTPAWYLKSIVETILIYKHFVKLTTEQPVAKQELVDFWMDFLVEATKTDVTVVRFPVLILEPTKIYQPSYLSINNEVEEKTISIWHVLPDDKKGIHEWNFSASSVRGVSISKFEERCCFLYVLHNSDDFQIYFCTELHCKKFFEMVNTITEEKGRSTEEGDCESDLLEYDYEYDENGDRVVLGKGTYGIVYAGRDLSNQVRIAIKEIPERDSRYSQPLHEEIALHKHLKHKNIVQYLGSFSENGFIKIFMEQVPGGSLSALLRSKWGPLKDNEQTIGFYTKQILEGLKYLHDNQIVHRDIKGDNVLINTYSGVLKISDFGTSKRLAGINPCTETFTGTLQYMAPEIIDKGPRGYGKAADIWSLGCTIIEMATGKPPFYELGEPQAAMFKVGMFKVHPEIPESMSAEAKAFILKCFEPDPDKRACANDLLVDEFLKVSSKKKKTQPKLSALSAGSNEYLRSISLPVPVLVEDTSSSSEYGSVSPDTELKVDPFSFKTRAKSCGERDVKGIRTLFLGIPDENFEDHSAPPSPEEKDSGFFMLRKDSERRATLHRILTEDQDKIVRNLMESLAQGAEEPKLKWEHITTLIASLREFVRSTDRKIIATTLSKLKLELDFDSHGISQVQVVLFGFQDAVNKVLRNHNIKPHWMFALDSIIRKAVQTAITILVPELRPHFSLASESDTADQEDLDVEDDHEEQPSNQTVRRPQAVIEDAVATSGVSTLSSTVSHDSQSAHRSLNVQLGRMKIETNRLLEELVRKEKELQALLHRAIEEKDQEIKHLKLKSQPIEIPELPVFHLNSSGTNTEDSELTDWLRVNGADEDTISRFLAEDYTLLDVLYYVTRDDLKCLRLRGGMLCTLWKAIIDFRNKQT
B2: MAP2K6(MKK6) (protein)
chain: MSQSKGKKRNPGLKIPKEAFEQPQTSSTPPRDLDSKACISIGNQNFEVKADDLEPIMELGRGAYGVVEKMRHVPSGQIMAVKRIRATVNSQEQKRLLMDLDISMRTVDCPFTVTFYGALFREGDVWICMELMDTSLDKFYKQVIDKGQTIPEDILGKIAVSIVKALEHLHSKLSVIHRDVKPSNVLINALGQVKMCDFGISGYLVDSVAKTIDAGCKPYMAPERINPELNQKGYSVKSDIWSLGITMIELAILRFPYDSWGTPFQQLKQVVEEPSPQLPADKFSAEFVDFTSQCLKKNSKERPTYPELMQHPFFTLHESKGTDVASFVKLILGD
B3: MAP2K6, mutant (protein)
chain: B2 chain with S207E, T211E
B4: MAP3K11(MLK3) (protein)
chain: MEPLKSLFLKSPLGSWNGSGSGGGGGGGGGRPEGSPKAAGYANPVWTALFDYEPSGQDELALRKGDRVEVLSRDAAISGDEGWWAGQVGGQVGIFPSNYVSRGGGPPPCEVASFQELRLEEVIGIGGFGKVYRGSWRGELVAVKAARQDPDEDISVTAESVRQEARLFAMLAHPNIIALKAVCLEEPNLCLVMEYAAGGPLSRALAGRRVPPHVLVNWAVQIARGMHYLHCEALVPVIHRDLKSNNILLLQPIESDDMEHKTLKITDFGLAREWHKTTQMSAAGTYAWMAPEVIKASTFSKGSDVWSFGVLLWELLTGEVPYRGIDCLAVAYGVAVNKLTLPIPSTCPEPFAQLMADCWAQDPHRRPDFASILQQLEALEAQVLREMPRDSFHSMQEGWKREIQGLFDELRAKEKELLSREEELTRAAREQRSQAEQLRRREHLLAQWELEVFERELTLLLQQVDRERPHVRRRRGTFKRSKLRARDGGERISMPLDFKHRITVQASPGLDRRRNVFEVGPGDSPTFPRFRAIQLEPAEPGQAWGRQSPRRLEDSSNGERRACWAWGPSSPKPGEAQNGRRRSRMDEATWYLDSDDSSPLGSPSTPPALNGNPPRPSLEPEEPKRPVPAERGSSSGTPKLIQRALLRGTALLASLGLGRDLQPPGGPGRERGESPTTPPTPTPAPCPTEPPPSPLICFSLKTPDSPPTPAPLLLDLGIPVGQRSAKSPRREEEPRGGTVSPPPGTSRSAPGTPGTPRSPPLGLISRPRPSPLRSRIDPWSFVSAGPRPSPLPSPQPAPRRAPWTLFPDSDPFWDSPPANPFQGGPQDCRAQTKDMGAQAPWVPEAGP
B5: MAP4K4(HGK) (protein)
chain: MANDSPAKSLVDIDLSSLRDPAGIFELVEVVGNGTYGQVYKGRHVKTGQLAAIKVMDVTEDEEEEIKLEINMLKKYSHHRNIATYYGAFIKKSPPGHDDQLWLVMEFCGAGSITDLVKNTKGNTLKEDWIAYISREILRGLAHLHIHHVIHRDIKGQNVLLTENAEVKLVDFGVSAQLDRTVGRRNTFIGTPYWMAPEVIACDENPDATYDYRSDLWSCGITAIEMAEGAPPLCDMHPMRALFLIPRNPPPRLKSKKWSKKFFSFIEGCLVKNYMQRPSTEQLLKHPFIRDQPNERQVRIQLKDHIDRTRKKRGEKDETEYEYSGSEE
B6: MAP2K3(MEK3) (protein)
chain: MSKPPAPNPTPPRNLDSRTFITIGDRNFEVEADDLVTISELGRGAYGVVEKVRHAQSGTIMAVKRIRATVNSQEQKRLLMDLDINMRTVDCFYTVTFYGALFREGDVWICMELMDTSLDKFYRKVLDKNMTIPEDILGEIAVSIVRALEHLHSKLSVIHRDVKPSNVLINKEGHVKMCDFGISGYLVDSVAKTMDAGCKPYMAPERINPELNQKGYNVKSDVWSLGITMIEMAILRFPYESWGTPFQQLKQVVEEPSPQLPADRFSPEFVDFTAQCLRKNPAERMSYLELMEHPFFTLHKTKKTDIAAFVKEILGEDS
B7: MAP2K2(MEK2) (protein)
chain: MLARRKPVLPALTINPTIAEGPSPTSEGASEANLVDLQKKLEELELDEQQKKRLEAFLTQKAKVGELKDDDFERISELGAGNGGVVTKVQHRPSGLIMARKLIHLEIKPAIRNQIIRELQVLHECNSPYIVGFYGAFYSDGEISICMEHMDGGSLDQVLKEAKRIPEEILGKVSIAVLRGLAYLREKHQIMHRDVKPSNILVNSRGEIKLCDFGVSGQLIDSMANSFVGTRSYMAPERLQGTHYSVQSDIWSMGLSLVELAVGRYPIPPPDAKELEAIFGRPVVDGEEGEPHSISPRPRPPGRPVSGHGMDSRPAMAIFELLDYIVNEPPPKLPNGVFTPDFQEFVNKCLIKNPAERADLKMLTNHTFIKRSEVEEVDFAGWLCKTLRLNQPGTPTRTAV
B8: MAPK12(p38gamma) (protein)
chain: MSSPPPARSGFYRQEVTKTAWEVRAVYRDLQPVGSGAYGAVCSAVDGRTGAKVAIKKLYRPFQSELFAKRAYRELRLLKHMRHENVIGLLDVFTPDETLDDFTDFYLVMPFMGTDLGKLMKHEKLGEDRIQFLVYQMLKGLRYIHAAGIIHRDLKPGNLAVNEDCELKILDFGLARQADSEMTGYVVTRWYRAPEVILNWMRYTQTVDIWSVGCIMAEMITGKTLFKGSDHLDQLKEIMKVTGTPPAEFVQRLQSDEAKNYMKGLPELEKKDFASILTNASPLAVNLLEKMLVLDAEQRVTAGEALAHPYFESLHDTEDEPQVQKYDDSFDDVDRTLDEWKRVTYKEVLSFKPPRQLGARVSKETPL
B9: MAPK11(p38B) (protein)
chain: MSGPRAGFYRQELNKTVWEVPQRLQGLRPVGSGAYGSVCSAYDARLRQKVAVKKLSRPFQSLIHARRTYRELRLLKHLKHENVIGLLDVFTPATSIEDFSEVYLVTTLMGADLNNIVKCQALSDEHVQFLVYQLLRGLKYIHSAGIIHRDLKPSNVAVNEDCELRILDFGLARQADEEMTGYVATRWYRAPEIMLNWMHYNQTVDIWSVGCIMAELLQGKALFPGSDYIDQLKRIMEVVGTPSPEVLAKISSEHARTYIQSLPPMPQKDLSSIFRGANPLAIDLLGRMLVLDSDQRVSAAEALAHAYFSQYHDPEDEPEAEPYDESVEAKERTLEEWKELTYQEVLSFKPPEPPKPPGSLEIEQ
B10: MAP3K9(MLK1) (protein)
chain: MEPSRALLGCLASAAAAAPPGEDGAGAGAEEEEEEEEEAAAAVGPGELGCDAPLPYWTAVFEYEAAGEDELTLRLGDVVEVLSKDSQVSGDEGWWTGQLNQRVGIFPSNYVTPRSAFSSRCQPGGEDPSCYPPIQLLEIDFAELTLEEIIGIGGFGKVYRAFWIGDEVAVKAARHDPDEDISQTIENVRQEAKLFAMLKHPNIIALRGVCLKEPNLCLVMEFARGGPLNRVLSGKRIPPDILVNWAVQIARGMNYLHDEAIVPIIHRDLKSSNILILQKVENGDLSNKILKITDFGLAREWHRTTKMSAAGTYAWMAPEVIRASMFSKGSDVWSYGVLLWELLTGEVPFRGIDGLAVAYGVAMNKLALPIPSTCPEPFAKLMEDCWNPDPHSRPSFTNILDQLTTIEESGFFEMPKDSFHCLQDNWKHEIQEMFDQLRAKEKELRTWEEELTRAALQQKNQEELLRRREQELAEREIDILERELNIIIHQLCQEKPRVKK
B11: MAP3K2(MEKK2) (protein)
chain: MDDQQALNSIMQDLAVLHKASRPALSLQETRKAKSSSPKKQNDVRVKFEHRGEKRILQFPRPVKLEDLRSKAKIAFGQSMDLHYTNNELVIPLTTQDDLDKAVELLDRSIHMKSLKILLVINGSTQATNLEPLPSLEDLDNTVFGAERKKRLSIIGPTSRDRSSPPPGYIPDELHQVARNGSFTSINSEGEFIPESMDQMLDPLSLSSPENSGSGSCPSLDSPLDGESYPKSRMPRAQSYPDNHQEFSDYDNPIFEKFGKGGTYPRRYHVSYHHQEYNDGRKTFPRARRTQGTSLRSPVSFSPTDHSLSTSSGSSIFTPEYDDSRIRRRGSDIDNPTLTVMDISPPSRSPRAPTNWRLGKLLGQGAFGRVYLCYDVDTGRELAVKQVQFDPDSPETSKEVNALECEIQLLKNLLHERIVQYYGCLRDPQEKTLSIFMEYMPGGSIKDQLKAYGALTENVTRKYTRQILEGVHYLHSNMIVHRDIKGANILRDSTGNVKLGDFGASKRLQTICLSGTGMKSVTGTPYWMSPEVISGEGYGRKADIWSVACTVVEMLTEKPPWAEFEAMAAIFKIATQPTNPKLPPHVSDYTRDFLKRIFVEAKLRPSADELLRHMFVHYH

Changes are numbered by the printed parent chain.

This data set deals with T1, Bovine, dephosphorylated, Myelin Basic ….
On to B1, for which the “MBP Kinase Activity” value is on record as “Weak”.

On to B2, for which the “MBP Kinase Activity” value is recorded as “Weak”.

Consider B3, for which the “MBP Kinase Activity” value is on record as “Negative”.

Consider B4, for which the “MBP Kinase Activity” value was “Negative”.

In the case of B5, the “MBP Kinase Activity” value is recorded as “Strong”.

Regarding B6, the “MBP Kinase Activity” value is given as “Negative”.

On to B7, for which the “MBP Kinase Activity” value is “Negative”.

Take B8: the “MBP Kinase Activity” value was “Strong”.

B9: the “MBP Kinase Activity” value is “Strong”.

Take B10: the “MBP Kinase Activity” value is “Strong”.

In the case of B11, the “MBP Kinase Activity” value is listed as “Weak”.
